Measurements taken from PMC9546532 (Proceedings of the National Academy of Sciences of the …, 2022).

Biological target: T1, Ela1^(1-143) of the Elc1/Ela1^(1-143) complex (separate chains) (S. cerevisiae, UniProt P53861 1-143)
T1 sequence (looked up): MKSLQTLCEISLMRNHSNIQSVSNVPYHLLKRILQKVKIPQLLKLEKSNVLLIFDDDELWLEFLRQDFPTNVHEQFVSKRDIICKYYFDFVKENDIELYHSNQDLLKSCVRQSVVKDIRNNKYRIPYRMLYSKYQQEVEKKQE
Test: SEC + AUC

B1: Elc1 of the Elc1/Ela1^(1-143) complex (separate chains) (natural protein, S. cerevisiae, UniProt Q03071 1-99, looked up)
chain: MSQDFVTLVSKDDKEYEISRSAAMISPTLKAMIEGPFRESKGRIELKQFDSHILEKAVEYLNYNLKYSGVSEDDDEIPEFEIPTEMSLELLLAADYLSI
B1: binds.
